{
  "source": "the nanobody polyreactivity screen of Harvey et al. (2022)",
  "data": [
    {"experiment": "yeast display, Sf9 membrane polyspecificity reagent, FACS + sequencing; frameworks hold sequencing errors", "method_in_brief": "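Synthetic nanobody libraries on Saccharomyces cerevisiae BJ5465 were galactose-induced for 36–48 hours, stained 1 hour at 4 °C with 10% biotinylated, detergent-solubilized Sf9 membrane reagent and enriched on streptavidin microbeads. FACS then separated cells into low and high (top ~1%) gates by anti-HA (expression) and streptavidin (reagent binding) fluorescence. Genes were colony-PCR amplified, MiSeq 2 × 250 sequenced and CDR-length filtered. A clone's polyreactivity label is that of its gate of origin.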", "values": [
      {"sequence": "QVQLVESGGGLVQAGGSLRLSCAASGSIFSWYAMGWYRQAPGKERELVAAIRWSGGRTYYADSVKGRFTISRDNAKNTVYLQMNSLKPEDTAVYYCAADFYPDEYYYWGQGTQVTVSS", "polyreactivity (PSR sort gate)": "high polyreactivity"},
      {"sequence": "QVQLVESGGGLVQAGGSLRLSCAASGSIFSYNALGWYRQAPGKEREFVAAISARGGSTYYADSVKGRFTISRDNAKNTVYLLMNSLKPEDTAVYYCAASWGLGTYSDSTYWGGYYYWGQGTQVTVSS", "polyreactivity (PSR sort gate)": "low polyreactivity"},
      {"sequence": "QVQLVESGGGLVQAGGSLRLSCAASGSIFSYNAMGWYREAPGKERELVAAISSRGRTYYADSVKGRFTISRDNAKNTVNLQMNSLKPEDTAVYYCAARGYWDLRTFYYWGQGTQVTVSS", "polyreactivity (PSR sort gate)": "high polyreactivity"},
      {"sequence": "QVQLVESGGGLVQAGGSLRLSCAASGSIFSYNAMGWYRQAPGKEMELVAAISSGGSTYYADSVKGSFTISRDNAKNTVYLQMNSLKPEDTAVYYCNVYYLIWPYGHQVKRRDYWGQGTQVTVSS", "polyreactivity (PSR sort gate)": "low polyreactivity"},
      {"sequence": "QVQLVESGGGLVQAGGSLRLSCAASGSIFSYNAMGWYRQAPGKERELVAAITWSGGSTYYADSVKGRFTISRDNAKNTVYLQMNSLKPEDTAVYDCAAKGGYSTVRPTYTKFNYWGLGTQVTVSS", "polyreactivity (PSR sort gate)": "high polyreactivity"},
      {"sequence": "QVQLVESGGGLVQAGGSLRLSCAASGSIFSYYAMGWSRQAPGKERELVAAISSGGSRTYYADSVKGRFTISRDNAKNTVYLQMNSLKPEDTAVYYCNAPAPARYYRGHDYWGQGTQVTVSS", "polyreactivity (PSR sort gate)": "high polyreactivity"},
      {"sequence": "QVQLVESGGGLVQAGGSLRLSCAASGSIFSYYAMGWYRQAPGKERELFAVINSGGRTNYADSVKGRFTISRDNAKNTVYLQMNSLKPEDTAVYYCAAQGYFVDRAGRYYRGDYWGQGTQVTVSS", "polyreactivity (PSR sort gate)": "high polyreactivity"},
      {"sequence": "QVQLVESGGGLVQAGGSLRLSCAASGSIFSYYAMGWYRQAPGKERELVAAISQSGGTTYYADSVKGRFTISRDNAKNTDYLQMKSLKPEDTAVYYCAARAPSSFDTQYYYWGQGTQVTVSS", "polyreactivity (PSR sort gate)": "low polyreactivity"},
      {"sequence": "QVQLVESGGGLVQAGGSLRLSCAASGSIFSYYAMGWYRQAPGKERELVAAISQSGGTTYYADSVKGRFTISRDNAKNTVYLQMNSLKPEDTAVYYCAARAPSSFDTQYYYWGQGTQVTVSS", "polyreactivity (PSR sort gate)": "low polyreactivity"},
      {"sequence": "QVQLVESGGGLVQAGGSLRLSCAASGSIFSYYAMGWYRQAPGKERELVAAISRGGYTYYADSVKGRFTISRDNAKNTVYLQMNSLKPEDTAVYYCAAAPYYVTLVTRRDYWGQGTQVTVSS", "polyreactivity (PSR sort gate)": "high polyreactivity"},
      {"sequence": "QVQLVESGGGLVQAGGSLRLSCAASGSIFSYYAMGWYRQAPGKERELVAAISVSGGRTYYADSVKGRFTISRDNAKNTVYLQMNSLKPEDTAVYYCATRIRSYYYWGQGTQVTVSS", "polyreactivity (PSR sort gate)": "high polyreactivity"},
      {"sequence": "QVQLVESGGGLVQAGGSLRLSCAASGSIFSYYAMGWYRQAPGKERELVAAISWSGGRTYYADSVKGRFTISRDNAKNTVYLQMNSLKPEDTAVYYCNVDVYVVPHYDYWGQGTQVTVSS", "polyreactivity (PSR sort gate)": "high polyreactivity"},
      {"sequence": "QVQLVESGGGLVQAGGSLRLSCAASGSIFSYYAMGWYRQAPGKERELVAANDWNVDSTYYADSVKGRFTISRDNAKNTVYLQLNSLNPEDTAVYYCNAEVYYFYTRYTWYLYDYWRQGTQVTVSS", "polyreactivity (PSR sort gate)": "low polyreactivity"},
      {"sequence": "QVQLVESGGGLVQAGGSLRLSCAASGSIFSYYAMGWYRQAPGKERELVAGITWSGGRTYYADSVKGRFTISRDNAKNTVYLQMNSLKPEDTAVYYCAAVQLFSRRSRYDYWGQGTQVTVSS", "polyreactivity (PSR sort gate)": "high polyreactivity"},
      {"sequence": "QVQLVESGGGLVQAGGSLRLSCAASGSIFSYYAMGWYRQATGKERELVAAITRGGTTYYAVCVKGRFTISRDNAKNTVYLQMNSLKPDDTAVYYCAVYYYSGTAGYRYGYWGQGTQVTVSS", "polyreactivity (PSR sort gate)": "high polyreactivity"},
      {"sequence": "QVQLVESGGGLVQAGGSLRLSCAASGSIFSYYPMGWYRPAPGKERELVAAISWSGGSTYYADSVKGRFTISRDNAKNTVYLQMNSLKPEDTAVYYCAAQSWSGDSSFWRYDYWGQGTQVTVSS", "polyreactivity (PSR sort gate)": "low polyreactivity"},
      {"sequence": "QVQLVESGGGLVQAGGSLRLSCAASGSIFTANAMGWYRQAPGKERELVAAISRSGGRTYYADSLKGRFTISRDNEKNTVYLQWKSLKPEDTAVYYCNVGRFNTSGYDYWGLGTQVTVSS", "polyreactivity (PSR sort gate)": "high polyreactivity"},
      {"sequence": "QVQLVESGGGLVQAGGSLRLSCAASGSIFTANAMGWYRQAPGKERELVAAISRSGGRTYYADSVKGRFTISRDNAKNTVYLQMNSLKPEDTAVYYCNVGRFNTSGYDYWGQGTQVTVSS", "polyreactivity (PSR sort gate)": "high polyreactivity"},
      {"sequence": "QVQLVESGGGLVQAGGSLRLSCAASGSIFTAYAMGWYRQAPGKERELVAAISYGGGSTYYADSVKGRFTISRDNAKNTVYLQMNSLKPEDTAVYYCAAASSGEYGYWGQGTLVTVSS", "polyreactivity (PSR sort gate)": "low polyreactivity"},
      {"sequence": "QVQLVESGGGLVQAGGSLRLSCAASGSIFTAYTMGWYRQAPGKERELVAVISDSSGRTYYADSVKGRFTISRDNAKNTVYLQMNSLKPEVTAVYYCAAEYSDIYEYWGQGTQVTVSS", "polyreactivity (PSR sort gate)": "low polyreactivity"},
      {"sequence": "QVQLVESGGGLVQAGGSLRLSCAASGSIFTDYTMGWYRQAPGKERELVAAISWIGDSTDYADSVKGRFTISRDNAKNTVYLQMNSLKPEDTAVYYCAKSRAGRYNDYDYWGQGTQVTVSS", "polyreactivity (PSR sort gate)": "low polyreactivity"},
      {"sequence": "QVQLVESGGGLVQAGGSLRLSCAASGSIFTEYAMGWYIQAPGKERELVAAISWSGATTYYADSVKGRFTISRDNAKNTVYLQMNSLKPEDTAVYYCAARWANRSYEYWGQGTQVTVSS", "polyreactivity (PSR sort gate)": "low polyreactivity"},
      {"sequence": "QVQLVESGGGLVQAGGSLRLSCAASGSIFTEYAMGWYRKAPGKERELVAVITLRGGSTYYADSVKGRFTISRDNAMNTVYLQMNSLKPEDTAVYYCAAVTLVSFWFDYWGQGTQVTVSS", "polyreactivity (PSR sort gate)": "low polyreactivity"},
      {"sequence": "QVQLVESGGGLVQAGGSLRLSCAASGSIFTFNAMGWYRQAPGKERELVAAINWSGTRTYYADSVKGRFTISRDNAKNTVYLQMNSLKPEDTAVYYCNTRPSKRYGYDYWGQGTQVTVSS", "polyreactivity (PSR sort gate)": "high polyreactivity"},
      {"sequence": "QVQLVESGGGLVQAGGSLRLSCAASGSIFTFYTMGWYRQAPGKERELVAAISQTGGRTYYADSVKGRFTISRDNAKNTVYLQMNSLKPEDTAVYYCAARSKRLAHDYWGQGTQVTVSS", "polyreactivity (PSR sort gate)": "high polyreactivity"},
      {"sequence": "QVQLVESGGGLVQAGGSLRLSCAASGSIFTGNAMGWYRQAPGKERELVAAITNGGITNYADSVKGRFTISRDNAKNTVYLQMNSLKPEDTAVYYCAADYVDFYSFRRFDYWGQGTQVTVSS", "polyreactivity (PSR sort gate)": "low polyreactivity"},
      {"sequence": "QVQLVESGGGLVQAGGSLRLSCAASGSIFTGYAMGWYRPAPGKERELVAANRYTTTSTYYADSVKGRFTISRDNAKNTVYLQMHSLKPEDTAVYYCKGWRGTYSGDYWGQGTQVTVSS", "polyreactivity (PSR sort gate)": "high polyreactivity"},
      {"sequence": "QVQLVESGGGLVQAGGSLRLSCAASGSIFTGYAMGWYRQAPGKDRELVAAISWRGGGTYYADSVQGRFTISRDNAKNTVYLQMNSQKPEDTAVYDCAAVTKFGQYAPGSKGYGYWGQATQVTVSS", "polyreactivity (PSR sort gate)": "low polyreactivity"},
      {"sequence": "QVQLVESGGGLVQAGGSLRLSCAASGSIFTGYAMGWYRQAPGKDRELVAGISWGGTSTYYADSVKGRFTISRDTAKNTVYLQMNSLKPEDTAVYYCSAVRGKYGYLTTPYWFDYWGQGTQVTVSS", "polyreactivity (PSR sort gate)": "high polyreactivity"},
      {"sequence": "QVQLVESGGGLVQAGGSLRLSCAASGSIFTGYTMGWYRPAPGKEREFVAAIRATGGSTYYADSVKGRFTISRDNAKNTVYLQMNSLKPEDTAVYYCAVRSGVGSVRKRYGYWGQGTQVTVSS", "polyreactivity (PSR sort gate)": "high polyreactivity"},
      {"sequence": "QVQLVESGGGLVQAGGSLRLSCAASGSIFTHNAMGWYRQAPGKERELVAAISSGGSTNYADSVKGPFTISRDNAKNTVYLQMNSLKPEDTAVYYCAKSIDGWYWRRRRYDYWGQGTQVTVSS", "polyreactivity (PSR sort gate)": "low polyreactivity"},
      {"sequence": "QVQLVESGGGLVQAGGSLRLSCAASGSIFTHYPMGWYRQAPGKERELVAAISRRGGSTYYADSVKGRFTISRDNAKNTVYLQMNSLKPEDTAVYYCAKSPDTAKEYDYWGQGTQVTVSS", "polyreactivity (PSR sort gate)": "high polyreactivity"},
      {"sequence": "QVQLVESGGGLVQAGGSLRLSCAASGSIFTKYAMGWYRQAPGKEREFVAAITLSGGSTYYADSVKGRFTISRDNAKNTVYLQMNSLKPEDTAVYYCNAAYTYVTAWYYYWGQGTQVTVSS", "polyreactivity (PSR sort gate)": "high polyreactivity"},
      {"sequence": "QVQLVESGGGLVQAGGSLRLSCAASGSIFTLYAMGWYRQAPGKEREFVAGISFSTGRTYYADSVKGRFSISRDNAKNTVYLQMNSLKPEDTAVYYCAAYVSHYWYGVYRDGYWGQGTQVTVSS", "polyreactivity (PSR sort gate)": "low polyreactivity"},
      {"sequence": "QVQLVESGGGLVQAGGSLRLSCAASGSIFTNAMGWYRQAPGKERELVAAISSSGGSTYYADSVKGRFTISRDNAKNTVYLQMNSLKPDDTAVYYCAADHYGCRDFWGQGSQVTVSS", "polyreactivity (PSR sort gate)": "low polyreactivity"},
      {"sequence": "QVQLVESGGGLVQAGGSLRLSCAASGSIFTNAMGWYRQAPGKETELVAAISYSGGSTYYADSVKGRFTISRDNAKNTVYLQMNSLKREDTAVYYCAAEAWFDGIWGDYWGQGTQVTVSS", "polyreactivity (PSR sort gate)": "high polyreactivity"},
      {"sequence": "QVQLVESGGGLVQAGGSLRLSCAASGSIFTPYAMGRYRQAPGKERELVAAISRSGGRTYYADSVKGRFTISRDNAKNTVYLQMNSLKPEDTAVYYCNAGAGQRVSGHSFEYWGQGTQVTVSS", "polyreactivity (PSR sort gate)": "high polyreactivity"},
      {"sequence": "QVQLVESGGGLVQAGGSLRLSCAASGSIFTPYAMGWYRQAPGKESELVAAIRSGTSTNYADSVKGRFTISRDNAKNTVYLQMNSLKPEDTAVYYCAAVYWSRFYVRYDYWGQGTQVTVSS", "polyreactivity (PSR sort gate)": "high polyreactivity"},
      {"sequence": "QVQLVESGGGLVQAGGSLRLSCAASGSIFTPYTMGWYRQAPGKERELVAAITGSAGSTYYADSVKGRFTISRDNAKNTVYLQMNSLKPEDTAVYYCAAAVWGVYQWYYYWGQGTQVTVSS", "polyreactivity (PSR sort gate)": "high polyreactivity"},
      {"sequence": "QVQLVESGGGLVQAGGSLRLSCAASGSIFTPYVMGWYRQAPGKEREFVAAITQRGGRTYYADSVKGRFTISRDNAKNTVYLQMNSLKPEDTAVYYCAKTSVSRTYHRSAYDYWGQGTQVTVSS", "polyreactivity (PSR sort gate)": "high polyreactivity"},
      {"sequence": "QVQLVESGGGLVQAGGSLRLSCAASGSIFTRNAMGWYRPAPGKERELVAAIRWNGGRTYYADSVKGRFTISRDNAKNTVYLQMNSLKPEDTAVYYCAADYYQRRYVPEYDYWGQGTQVTVSS", "polyreactivity (PSR sort gate)": "low polyreactivity"},
      {"sequence": "QVQLVESGGGLVQAGGSLRLSCAASGSIFTRYAMGWYRQAPGKERELVAAIRTSGGSTYYADSVKGRFTISRDNAKNTVYLQMNSLKPEDTAVYYCARRYYKSNFYYWGQGTQVTVSS", "polyreactivity (PSR sort gate)": "high polyreactivity"},
      {"sequence": "QVQLVESGGGLVQAGGSLRLSCAASGSIFTRYAMGWYRQAPGKERELVAAITASGGRTYYADSVKGRFTISRDNAKNTVYLQMNSLKPEDTAVYYCNTYWRFTSQLPYDYWGQGTQVTVSS", "polyreactivity (PSR sort gate)": "high polyreactivity"}
    ]}
  ]
}
